Results: the DeepSol protein solubility set

Experiment: soluble on expression in E. coli; label from the status in PepcDB or PDB records

Sequence | soluble on expression in E. coli
SGLRKMAQPSGLVEPCIVRVSYGNNVLNGLWLGDEVICPRHVIASDTTRVINYENEMSSVRLHNFSVSKNNVFLGVVSARYKGVNLVLKVNQVNPNTPEHKFKSIKAGESFNILACYEGCPGSVYGVNMRSQGTIKGSFIAGTCGSVGYVLENGILYFVYMHHLELGNGSHVGSNFEGEMYGGYEDQPSMQLEGTNVMSSDNVVAFLYAALINGERWFVTNTSMSLESYNTWAKTNSFTELSSTDAFSMLAAKTGQSVEKLLDSIVRLNKGFGGRTILSYGSLCDEFTPTEVIRQMYGVNLQ | soluble
MSLKTTPLPILDLLEAYRPLFVEALGNRSRKERSKKERYIAKITAPCIDACPAHVDIPAYIEGVRDHLLGDSLAATRKSMPLAQVCGRVCPHPCESACRRGDLDEPISIMELKRLGADYEKERHGGFIHPYPPKPRRKDKRVAIIGAGPAGLSSAYYLALEGIMSDVFEALPVLGGEVSVGVPEYRMPIDRYYHDIEAIKSLGVSFWTNHFVSAKELDEMRQKYDAIILATGARISKKLGVKGEEESLGGYAPAIPWLDQINLATKFNLAALPDLRGKSVVCVGGGFTSMDVVRCAVRLGAKRIVMLYRRDEATLIQNTSKEEYHEALEEGVEFLFQCAVQEIKSCGGEIKALLVEEYEVVYEEGARKPSLRRIEREPLFLECDLLIPAVSQEVDRSFIPKEWNLESTSWGSFKTNGKDFSTTLRGVFAAGDCEKGPLTIVNAVGQGKRAASVVSRFLEDGEEGHHHHHH | soluble
MGSDKIHHHHHHLRRLLNTLYVTTPDSYLAREGENILIRLEEKIVFRIPSHNIEAIVYFGYPGASPSLLGLCAEKGITVSFFSPNGRFLARVEGPQTGNVLLRRKQYRMADEENQVPVLAKYFIAAKILNSRAVLQRGRRDHPDKVGDSIERSIALLAGSVKKVFDSENLNDIRGLEGDAAQRYFSEVDNLILEQKQDFFMAARSRRPPLDNVNALLSFFYTLLVHECRAALESVGLDPAVGFLHRDRPGRPSLALDLMEELRPYLGDRMVLSLINRKQINKDDFITKENGAVYVLPDTRKMLLTVWQKRKQEEIIHPYLEEKIPIGLLPYTQALLLARFLRGDLDAYPAFIWK | not soluble
MQDRNFDDIAEKFSRNIYGTTKGQLRQAILWQDLDRVLAEMGPQKLRVLDAGGGEGQTAIKMAERGHQVILCDLSAQMIDRAKQAAEAKGVSDNMQFIHCAAQDVASHLETPVDLILFHAVLEWVADPRSVLQTLWSVLRPGGVLSLMFYNAHGLLMHNMVAGNFDYVQAGMPKKKKRTLSPDYPRDPAQVYLWLEEAGWQIMGKTGVRVFHDYLREKYQQRDCYEALLELETRYCRQEPYITLGRYIHVTARKPQSKDKV | not soluble
MSLKIGKIVSVNFNQFRVKISSEIRGNSVNLAGTVYYFGNIGSYLKTTNSVGEQLICEVMSIFDSDTKLDSAAYDFDSNRELLLKPIGTITRDDRFNLGVGIFPGIYSEVNVVTFEDMELILQTGKDKELSKAIHQSFFLGESKNLINYPIDISINSFFNIHSAVLGNSGSGKSNTIAHIIQEIHKKKNNSAIGSRILIFDVNGEYKNAFTGHEISPYIKVRLLKPNIEATEDGVEPFYLPHFLMNIDEWSSFLMATDATQRPFWDKVLQESYKFYMIATHEGDDRQKLINYLRFKICNLIHILQAQGDSDTAIITTAQGILYGILTLIEMDDDLQRACQQEGVLQDLHDLNASCTIDWGRNDGKLMRAVELVENRINKDTLREVMDYRASGEEYFNYEFLKQAANLTLLEEDARGNGRVREYTSTMMTRLDFFLDNPDCAFMRKSPVGATNIDQYLDWLWQSDKTVPEKTNMVIIDTSELSKDALETLTSVTSRLHFTSRKKLKGSARREKPIHLVLDEAHRYIKKDSKYLLRENIFEQIAREGRKYALYLLVSSQRPSELSETVLSQCSNFIIHRIQNEIDMKYVYAILPYFSDDFANKIKQSVPGEALIFGNCVSMPLHVRVKQAYPEPNSENCKVHEEWFKEGHHHHHH | soluble
MYEVTKFGGEGKRLEDYREIIGDEALEAIKAKAENLKDKSFVHVNSTSFGGGVAEILHNLVPLMRDVGIDARWFVIEGTNEFFNVTKSFHNALQGNKELRLTEEMKKLYLEINKKNAEDIDLTQFDYVLIHDPQPAPLIEFYEKRQPWIWRCHIDLSDPNLEFWKFLRQFVEKYDRYIFHMEEYVQEDLNQEKVVIMPPSIDPLSEKNMELEHHHHHH | not soluble
VKFIADPSGVDVLEEVEVFALGPTEVIVVGRLEFIYHEASDEYLEKFEGKLKKGVWYGTNIAVIFTLYRPAGSMEVDKIILDNTFEEIL | not soluble
SREEFEQILQERNELKAKVFLLKEELAYFQRELLTDHRVPSLLLEAMKVAVRKQRKKIKAKMLGT | soluble
